According to patent publication US20190071490A1, “Preventing Post-Ictal Headaches” (Beth Israel Deaconess Medical Center, Inc., priority 2017, published 2019):
Changes are numbered by the printed parent chain. Numbers in names are those of the source. Values belong to the molecule of their own block, whether it stands above or below them.

How the values were obtained:
human α-CGRP = target: T1, human α-CGRP (Homo sapiens, UniProt P06881); experiment: Biacore SPR affinity of Fab fragments to N-biotinylated human α-CGRP on SA chip; format: binding; conditions: 37° C., screening mode except underlined values
T1 construct: 1-37 (WT); purchased GenScript Corporation or Global Peptide Services
T1 sequence (P06881 83-119 limits assumed): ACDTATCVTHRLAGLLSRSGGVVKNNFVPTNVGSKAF
Outline: (§1)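 HBS-EP pH 7.4 running buffer at 25° C. or 37° C.; N-biotinylated CGRP captured on streptavidin SA chip (<50 RU for kinetics), Fab titrated over surface with regeneration by 25 mM NaOH/25% ethanol. Titrations globally fit to 1:1 Langmuir model; KD=koff/kon, with 2-hour dissociation for very slow off-rates.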

rat α-CGRP = target: T2, rat α-CGRP (Rattus norvegicus, UniProt P01256); experiment: Biacore SPR affinity of Fab fragments to N-biotinylated rat α-CGRP on SA chip; format: binding; conditions: 37° C., screening mode except underlined values
T2 construct: rat α (1-37); purchased GenScript Corporation or Global Peptide Services
T2 sequence (P01256 83-119 limits assumed): T1 sequence (P06881 83-119 limits assumed) with A1S, D3N, N25D, K35E
Outline: as §1

α-human koff (human α-CGRP): 0.00021 s⁻¹ | α-rat koff (rat α-CGRP): 0.00613 s⁻¹
B1: M44: G1 variant; L1 R28N; L2 G50A L56T; H2 E54K A57N S58E; HC-FW3 L99T A100V (antibody, V domains shown)
VH: EVQLVESGGGLVQPGGSLRLSCAASGFTFSNYWISWVRQAPGKGLEWVAEIRSKSDNEATHYAEAVKGRFTISRDNAKNSLYLQMNSLRAEDTAVYYCTVYFDYGLAIQNYWGQGTLVTVSS
VL: EIVLTQSPATLSLSPGERATLSCKASKNVTTYVSWYQQKPGQAPRLLIYAASNRYTGIPARFSGSGSGTDFTLTISSLEPEDFAVYYCSQSYNYPYTFGQGTKLEIK

α-human koff (human α-CGRP): 0.000211 s⁻¹ | α-rat koff (rat α-CGRP): 0.00558 s⁻¹
B2: M45: G1 variant; L1 R28N; L2 G50A L56T; H2 E54K A57N S58E E64D; HC-FW3 L99T A100V (antibody, V domains shown)
VH: B1 VH with E64D
VL: B1 VL
